Where “and” joins values, the source holds several entries; their conditions need not be identical. Equal values may be shown once. Read-outs that look alike come from different tables or passages of the source.
How the values were obtained:
[1] = biological target: transferrin (Homo sapiens) (UniProt P02787); settings: cited from earlier work
[2] = biological target: LbpB (N. meningitidis MC58, without amino acids 1-15) after TEV cleavage of MBP-LbpB (Neisseria meningitidis strain MC58); experiment: cross-linking; XL-MS: LbpB (MBP fusion or TEV-cleaved) and hLf equimolar in 50 mM Tris-HCl, 50 mM NaCl, pH 7.4, 4 h RT, DSS 30 min, bands cut from SDS-PAGE, LC-MS/MS
[3] = biological target: MBP-LbpB (lactoferrin binding protein B, N. meningitidis MC58, without amino acids 1-15) (Neisseria meningitidis strain MC58); experiment: as above
[4] = biological target: MBP-LbpB (lactoferrin binding protein B, N. meningitidis MC58, without amino acids 1-15) (Neisseria meningitidis strain MC58); experiment: as above; remark: listed apart in the source
[5] = biological target: intact LbpB with N-terminal biotin acceptor peptide, fused to MBP (BLI construct) (Neisseria meningitidis strain MC58); experiment: BLI; Octet RED 96; biotinylated MBP-LbpB constructs loaded from crude E. coli extracts on streptavidin sensors; holo-hLf 10-800 nM in 1 X PBS pH 7.4, 0.002% Tween-20, 0.1 mg/mL BSA; steady-state fit, apparent KD
[6] = biological target: LbpB N-terminal lobe with N-terminal biotin acceptor peptide, fused to MBP (BLI construct) (Neisseria meningitidis strain MC58); experiment: as above
[7] = biological target: LbpB with the anionic loops removed (LbpB-lgsm), N-terminal biotin acceptor peptide, fused to MBP (BLI construct) (Neisseria meningitidis strain MC58); experiment: as above

transferrin (Homo sapiens), sequence (P02787 20-698): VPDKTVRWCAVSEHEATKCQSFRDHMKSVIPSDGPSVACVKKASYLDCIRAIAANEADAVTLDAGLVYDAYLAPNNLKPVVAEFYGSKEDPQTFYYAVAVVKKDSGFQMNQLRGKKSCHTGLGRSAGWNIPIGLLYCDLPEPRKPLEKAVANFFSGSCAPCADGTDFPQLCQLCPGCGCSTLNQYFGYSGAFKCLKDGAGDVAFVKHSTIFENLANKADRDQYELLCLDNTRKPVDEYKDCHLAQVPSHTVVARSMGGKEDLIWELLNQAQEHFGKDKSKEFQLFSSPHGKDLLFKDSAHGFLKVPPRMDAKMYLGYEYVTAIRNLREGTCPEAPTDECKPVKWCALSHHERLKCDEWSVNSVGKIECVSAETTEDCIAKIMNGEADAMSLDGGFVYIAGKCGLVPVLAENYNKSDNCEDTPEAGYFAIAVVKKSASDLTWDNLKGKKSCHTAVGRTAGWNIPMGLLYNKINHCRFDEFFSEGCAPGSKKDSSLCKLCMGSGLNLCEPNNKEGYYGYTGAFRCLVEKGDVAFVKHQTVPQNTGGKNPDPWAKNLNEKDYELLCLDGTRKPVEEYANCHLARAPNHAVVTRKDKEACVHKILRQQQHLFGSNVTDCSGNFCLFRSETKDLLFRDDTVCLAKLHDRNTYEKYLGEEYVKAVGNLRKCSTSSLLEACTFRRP

## TbpB (from UniProt Q09057)
[1]
  Kd: 50 nM

## holo human lactoferrin (iron-loaded hLf) (ligand)
[2]
  stoichiometry N: 1 hLf:LbpB and 2 hLf:LbpB
[3]
  stoichiometry N: 1 hLf:LbpB
[4]
  stoichiometry N: 2 hLf:LbpB
[5]
  Kd: 72.8 nM
[6]
  Kd: 126 nM
[7]
  Kd: 140 nM

From publication PMC5352143
